B1: DAZ associated protein 1 (DAZAP1), full length, recombinant (natural protein, human, UniProt Q96EP5 1-407, looked up)
chain: MNNSGADEIGKLFVGGLDWSTTQETLRSYFSQYGEVVDCVIMKDKTTNQSRGFGFVKFKDPNCVGTVLASRPHTLDGRNIDPKPCTPRGMQPERTRPKEGWQKGPRSDNSKSNKIFVGGIPHNCGETELREYFKKFGVVTEVVMIYDAEKQRPRGFGFITFEDEQSVDQAVNMHFHDIMGKKVEVKRAEPRDSKSQAPGQPGASQWGSRVVPNAANGWAGQPPPTWQQGYGPQGMWVPAGQAIGGYGPPPAGRGAPPPPPPFTSYIVSTPPGGFPPPQGFPQGYGAPPQFSFGYGPPPPPPDQFAPPGVPPPPATPGAAPLAFPPPPSQAAPDMSKPPTAQPDFPYGQYAGYGQDLSGFGQGFSDPSQQPPSYGGPSVPGSGGPPAGGSGFGRGQNHNVQGFHPYRR
B2: hnRNP A0, full length, recombinant (natural protein, UniProt Q13151 1-305, looked up)
chain: MENSQLCKLFIGGLNVQTSESGLRGHFEAFGTLTDCVVVVNPQTKRSRCFGFVTYSNVEEADAAMAASPHAVDGNTVELKRAVSREDSARPGAHAKVKKLFVGGLKGDVAEGDLIEHFSQFGTVEKAEIIADKQSGKKRGFGFVYFQNHDAADKAAVVKFHPIQGHRVEVKKAVPKEDIYSGGGGGGSRSSRGGRGGRGRGGGRDQNGLSKGGGGGYNSYGGYGGGGGGGYNAYGGGGGGSSYGGSDYGNGFGGFGSYSQHQSSYGPMKSGGGGGGGGSSWGGRSNSGPYRGGYGGGGGYGGSSF

Legend:
[1] = molecular target: B2; assay: ITC
[2] = molecular target: B1; assay: ITC

| stoichiometry N [1] | binding result [2] | Binder |
| --- | --- | --- |
| 1 | – | B1 |
| – | binds | B2 |
| – | binds | hnRNP A2, full length, recombinant (natural protein, UniProt P22626-2 1-341, looked up) MEREKEQFRKLFIGGLSFETTEESLRNYYEQWGKLTDCVVMRDPASKRSRGFGFVTFSSMAEVDAAMAARPHSIDGRVVEPKRAVAREESGKPGAHVTVKKLFVGGIKEDTEEHHLRDYFEEYGKIDTIEIITDRQSGKKRGFGFVTFDDHDPVDKIVLQKYHTINGHNAEVRKALSRQEMQEVQSSRSGRGGNFGFGDSRGGGGNFGPGPGSNFRGGSDGYGSGRGFGDGYNGYGGGPGGGNFGGSPGYGGGRGGYGGGGPGYGNQGGGYGGGYDNYGGGNYGSGNYNDFGNYNQQPSNYGPMKSGNFGGSRNMGGPYGGGNYGPGGSGGSGGYGGRSRY |
